Measured values as given in patent US20130323259A1 (Novo Nordisk, published 2013).
Substitutions are numbered along the chain they refer to. Names and notes keep the numbering of the source. Values joined by “and” are separate entries in the source; they are usually repeats but may differ in a detail not shown here. Identical values can stand only once. One block for each binder: values may come before it.

Key:
[1] = biological target: hIL-21: human recombinant IL-21, corresponding to residues 30-162 and with an N-terminal Methionine as … (human, UniProt Q9HBE4 30-162); test: HX-MS, 4 µM hIL-21 with 2.4 µM mAb
[2] = biological target: T1, human IL-21 (hIL-21 protein; recombinant human IL-21) (human, UniProt Q9HBE4 25-162, limits assumed); test: SPR (Biacore), mAb captured by anti-Fc, hIL-21 as analyte; experiment no 2
[3] = biological target: T1, human IL-21 (hIL-21 protein; …); test: SPR (Biacore), mAb captured by anti-Fc, hIL-21 as analyte; experiment no 1
[4] = biological target: T1, human IL-21 (hIL-21 protein; …); test: SPR, Biacore T200, mAb captured by anti-human Fc, hIL-21 as analyte; exp no 1
Experimental: (§1) Anti-human Fc monoclonal from Biacore human Fc capture kit was immobilized onto flow cells of a CM4 sensor chip according to the manufacturer's instructions. […] The CM4 surface was regenerated after each injection cycle of analyte via two injections of 3M MgCl₂ at 50 μl/min.
(§2) In order to receive kinetic data, such as ka (association rate), kd (dissociation rate) and KD (equilibrium dissociation constant), data analysis was performed using the Biacore T200 evaluation software 1.0.

[5] = biological target: T1, human IL-21 (hIL-21 protein; …); test: SPR, Biacore T200, mAb captured by anti-human Fc, hIL-21 as analyte; exp no 2
Experimental: as §1, §2

[6] = biological target: T1, human IL-21 (hIL-21 protein; …); test: SPR (Biacore), average of experiments
[7] = biological target: T1, human IL-21 (hIL-21 protein; …); test: cell-based or functional assay
[8] = biological target: T1, human IL-21 (hIL-21 protein; …); test: SPR, Biacore T200, mAb captured by anti-human Fc, hIL-21 as analyte; exp no 1; Exp no 1, first of the two exp-1 rows for 0005
[9] = biological target: T1, human IL-21 (hIL-21 protein; …); test: cell-based or functional assay; remark: listed apart in the source
[10] = biological target: T1, human IL-21 (hIL-21 protein; …); test: SPR, Biacore T200, average of two experiments
Experimental: as §1, §2

[11] = biological target: T1, human IL-21 (hIL-21 protein; …); test: SPR (Biacore), mAb captured by anti-Fc, hIL-21 as analyte; experiment no 6

Sequence of hIL-21: human recombinant IL-21, corresponding to residues 30-162 and with an N-terminal Methionine as … (Q9HBE4 other isoform, or with tags, fused parts or gaps): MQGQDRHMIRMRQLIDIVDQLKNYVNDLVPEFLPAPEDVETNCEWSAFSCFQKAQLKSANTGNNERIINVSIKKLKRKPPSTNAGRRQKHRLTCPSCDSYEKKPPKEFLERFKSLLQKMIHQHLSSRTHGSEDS
T1 sequence (Q9HBE4 25-162 limits assumed): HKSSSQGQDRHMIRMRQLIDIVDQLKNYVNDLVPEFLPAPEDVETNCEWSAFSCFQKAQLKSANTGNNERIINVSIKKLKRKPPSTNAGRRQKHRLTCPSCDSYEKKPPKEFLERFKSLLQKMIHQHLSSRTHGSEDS

- amides protected from exchange in region E93-V98 at 100 sec [1]: ~2 amides
- Kd [2]: 0.17 pM
- koff [2]: 1.1e-05 s⁻¹
- kon [2]: 6.6e+07 M⁻¹ s⁻¹
- Kd [3]: 0.58 pM and 0.72 pM
- koff [3]: 9.5e-06 s⁻¹ and 1.1e-05 s⁻¹
- kon [3]: 1.6e+07 M⁻¹ s⁻¹ and 1.5e+07 M⁻¹ s⁻¹
- Kd [4]: 0.58 pM and 0.72 pM
- koff [4]: 9.5e-06 s⁻¹ and 1.1e-05 s⁻¹
- kon [4]: 1.5e+07 M⁻¹ s⁻¹
- Kd [5]: 0.17 pM
- koff [5]: 1.1e-05 s⁻¹
- kon [5]: 6.6e+07 M⁻¹ s⁻¹
- Kd [6]: ≤ 1 pM
- koff [6]: 1e-05 s⁻¹
- IC50 (nM), B cell proliferation, Donor 1 (0114-0000-0006) [7]: 0.82 nM
- IC50 (nM), B cell proliferation, Donor 2 (0114-0000-0006) [7]: 0.83 nM
- IC50 (nM), B cell proliferation, Donor 3 (0114-0000-0006) [7]: 0.57 nM
- IC50 (nM), B cell proliferation, Donor 4 (0114-0000-0006) [7]: 1.33 nM
- kon [8]: 1.6e+07 M⁻¹ s⁻¹
B1: monoclonal antibody NNC 0114-0005 (antibody, human IgG1, kappa, V domains shown)
VH: QVQLVESGGGVVQPGRSLRLSCAASGFTFSSYGMHWVRQAPGKGLEWVAFIWYDGSDKYYADSVKGRFTISRDNSKNTLYLQMNSLRAEDTAVYYCARDGDSSDWYGDYYFGMDVWGQGTTVTVSS
VL: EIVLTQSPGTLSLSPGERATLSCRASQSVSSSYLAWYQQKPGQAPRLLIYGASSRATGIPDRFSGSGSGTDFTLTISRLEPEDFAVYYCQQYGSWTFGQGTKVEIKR
notes: also called NNC114-0005

- Bioactivity as % of RM (NCC0114-0000-0006), NK-92 bioassay [9]: 89.8%
- IC50 (nM), B cell proliferation, Donor 2 [7]: 0.3 nM
- IC50 (nM), B cell proliferation, Donor 4 [7]: 1.35 nM
B2: 0114-0000-0043, light chain R55K variant of mAb 0006 (NNC 0114-0005) (antibody, human IgG1, kappa, V domains shown)
VH: B1 VH
VL: EIVLTQSPGTLSLSPGERATLSCRASQSVSSSYLAWYQQKPGQAPRLLIYGASSKATGIPDRFSGSGSGTDFTLTISRLEPEDFAVYYCQQYGSWTFGQGTKVEIKR

- amides protected from exchange in region E93-V98 at 100 sec [1]: ~2 amides
- Bioactivity as % of RM (NCC0114-0000-0006), NK-92 bioassay [9]: 95.2%
- IC50 (nM), B cell proliferation, Donor 1 [7]: 0.78 nM
- IC50 (nM), B cell proliferation, Donor 3 [7]: 0.92 nM
B3: 0114-0000-0039, light chain S53A variant of mAb 0006 (NNC 0114-0005) (antibody, human IgG1, kappa, V domains shown)
VH: B1 VH
VL: B2 VL with S53A, K55R

- amides protected from exchange in region E93-V98 at 100 sec [1]: ~2 amides
- Bioactivity as % of RM (NCC0114-0000-0006), NK-92 bioassay [9]: 83.9%
- IC50 (nM), B cell proliferation, Donor 1 [7]: 1.15 nM
- IC50 (nM), B cell proliferation, Donor 3 [7]: 1.12 nM
B4: 0114-0000-0041, light chain S54A variant of mAb 0006 (NNC 0114-0005) (antibody, human IgG1, kappa, V domains shown)
VH: B1 VH
VL: B2 VL with S54A, K55R

- amides protected from exchange in region E93-V98 at 100 sec [1]: ~2 amides
- Kd [10]: ≤ 1 pM
- koff [10]: 1e-05 s⁻¹
- Kd [4]: 0.43 pM and 0.42 pM
- koff [4]: 1.2e-05 s⁻¹ and 1.1e-05 s⁻¹
- kon [4]: 2.7e+07 M⁻¹ s⁻¹
- Bioactivity as % of RM (NCC0114-0000-0006), NK-92 bioassay [9]: 89.2%
- Kd [5]: 0.09 pM
- koff [5]: 6.8e-06 s⁻¹
- kon [5]: 7.5e+07 M⁻¹ s⁻¹
- IC50 (nM), B cell proliferation, Donor 1 [7]: 1.18 nM
- IC50 (nM), B cell proliferation, Donor 3 [7]: 1.21 nM
B5: NNCD-0114-0000-0038, Heavy-chain residue 31 Ser to Ala mutated form (H:S31A) of NNC 0114-0005 (antibody, human IgG1, kappa, V domains shown)
VH: B1 VH with S31A
VL: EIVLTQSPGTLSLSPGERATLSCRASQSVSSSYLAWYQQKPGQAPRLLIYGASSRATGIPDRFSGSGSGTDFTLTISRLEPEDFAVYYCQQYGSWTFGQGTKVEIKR

- amides protected from exchange in region E93-V98 at 100 sec [1]: ~2 amides
- Bioactivity as % of RM (NCC0114-0000-0006), NK-92 bioassay [9]: 92.9%
- IC50 (nM), B cell proliferation, Donor 1 [7]: 0.93 nM
- IC50 (nM), B cell proliferation, Donor 3 [7]: 1 nM
B6: 0114-0000-0040, light chain S53T variant of mAb 0006 (NNC 0114-0005) (antibody, human IgG1, kappa, V domains shown)
VH: B1 VH
VL: B2 VL with S53T, K55R

- Kd [10]: ≤ 1 pM
- koff [10]: 1e-05 s⁻¹
- Kd [4]: ≤ 0.46 pM
- koff [4]: ≤ 1e-05 s⁻¹
- kon [4]: 2.2e+07 M⁻¹ s⁻¹
- Bioactivity as % of RM (NCC0114-0000-0006), NK-92 bioassay [9]: 77.8%
- Kd [5]: 0.24 pM
- koff [5]: 1.3e-05 s⁻¹
- kon [5]: 5.4e+07 M⁻¹ s⁻¹
- IC50 (nM), B cell proliferation, Donor 2 [7]: 0.8 nM
- IC50 (nM), B cell proliferation, Donor 4 [7]: 1.17 nM
B7: NNC-0114-0044, Light-chain residue 57 Thr to Ser mutated form (L:T57S) of NNC 0114-0005 (antibody, human IgG1, kappa, V domains shown)
VH: B1 VH
VL: B2 VL with K55R, T57S

- Kd [11]: 0.12 pM and 0.18 pM and 0.28 pM
- koff [11]: 6.8e-06 s⁻¹ and 8.9e-06 s⁻¹ and 1.2e-05 s⁻¹
- kon [11]: 5.5e+07 M⁻¹ s⁻¹ and 4.9e+07 M⁻¹ s⁻¹ and 4.3e+07 M⁻¹ s⁻¹
- Kd [6]: ≤ 1 pM
- koff [6]: 1e-05 s⁻¹
- IC50 (nM), B cell proliferation, Donor 1 [7]: 1.23 nM
- IC50 (nM), B cell proliferation, Donor 2 [7]: 0.86 nM
- IC50 (nM), B cell proliferation, Donor 3 [7]: 1.13 nM
- IC50 (nM), B cell proliferation, Donor 4 [7]: 0.91 nM
B8: monoclonal antibody NNC 0114-0015 (antibody, V domains shown)
VH: B1 VH with S31T
VL: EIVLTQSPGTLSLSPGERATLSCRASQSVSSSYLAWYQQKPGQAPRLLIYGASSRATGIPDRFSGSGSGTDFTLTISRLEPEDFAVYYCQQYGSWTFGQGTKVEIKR
notes: also called NNC114-0015
